The results in this text go back to the supplement of paper PMC5998384.

The test system of data set [1] is HeLa Kyoto. As to the kind of experiment: solubility in G1/S (NP-40 vs SDS abundance) (log2 ratio); higher = more soluble. The note with it: cell cycle stage: G1/S.
The test system of data set [2] is HeLa Kyoto. As to the kind of experiment: melting temperature (median over replicates), in situ; higher = more thermally stable.
Data set [3] has as its system HeLa Kyoto. As to the kind of experiment: solubility change mitosis vs G1/S (difference of NP-40 vs SDS log2 ratios) (log2 ratio difference); higher = more soluble in mitosis.
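Wherever melting temperature (median over replicates), in situ is given: HeLa Kyoto cells synchronized by double thymidine or nocodazole block, proteins quantified by TMT10plex mass spectrometry, three independent biological replicates.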
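Wherever solubility change mitosis vs G1/S (difference of NP-40 vs SDS log2 ratios) is given: synchronized HeLa Kyoto cells (double thymidine block for G1/S, nocodazole release for mitosis), protein amounts in NP-40 versus SDS lysates quantified by mass spectrometry, three biological replicates.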
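Wherever solubility in G1/S (NP-40 vs SDS abundance) is given: HeLa Kyoto cells arrested at G1/S by double thymidine block, proteins quantified by TMT10plex mass spectrometry in mild NP-40 versus SDS extracts, three biological replicates.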

As to “MSTGFSFGSGTLGSTTVAAGGTSTGGVFSFGTGASSNPSVGLNFGNLGSTSTPATTSAPSSGFGTGLFGSKPATGFTLGGTNTGIATTITTGLTLGTPATTSAATTGFSLGFNKPAASATPFALPITSTSASGLTLSSALTSTPAASTGFTLNNLGGTTATTTTASTGLSLGGALAGLGGSLFQSTNTGTSGLGQNALGLTLGTTAATSTAGNEGLGGIDFSSSSDKKSDKTGTRPEDSKALKDENLPPVICQDVENLQKFVKEQKQVQEEISRMSSKAMLKVQEDIKALKQLLSLAANGIQRNTLNIDKLKIETAQELKNAEIALRTQKTPPGLQHEYAAPADYFRILVQQFEVQLQQYRQQIEELENHLATQANNSHITPQDLSMAMQKIYQTFVALAAQLQSIHENVKVLKEQYLGYRKMFLGDAVDVFETRRAEAKKWQNTPRVTTGPTPFSTMPNAAAVAMAATLTQQQQPATGPQPSLGVSFGTPFGSGIGTGLQSSGLGSSNLGGFGTSSGFGCSTTGASTFGFGTTNKPSGSLSAGFGSSSTSGFNFSNPGITASAGLTFGVSNPASAGFGTGGQLLQLKKPPAGNKRGKR [NUP58]”, the “solubility in G1/S (log2)” value in the data set with HeLa Kyoto [1] turned out to be 0.542. Moreover, the melting temperature was determined as 54.1 °C in the data set with HeLa Kyoto [2] (cell cycle stage: G1/S) and 52.7 °C with HeLa Kyoto [2] (cell cycle stage: mitosis). In the data set with HeLa Kyoto [3], the “solubility change mitosis (log2)” value worked out at 0.234.
As for “MPPERRRRMKLDRRTGAKPKRKPGMRPDWKAGAGPGGPPQKPAPSSQRKPPARPSAAAAAIAVAAAEEERRLRQRNRLRLEEDKPAVERCLEELVFGDVENDEDALLRRLRGPRVQEHEDSGDSEVENEAKGNFPPQKKPVWVDEEDEDEEMVDMMNNRFRKDMMKNASESKLSKDNLKKRLKEEFQHAMGGVPAWAETTKRKTSSDDESEEDEDDLLQRTGNFISTSTSLPRGILKMKNCQHANAERPTVARISSVQFHPGAQIVMVAGLDNAVSLFQVDGKTNPKIQSIYLERFPIFKACFSANGEEVLATSTHSKVLYVYDMLAGKLIPVHQVRGLKEKIVRSFEVSPDGSFLLINGIAGYLHLLAMKTKELIGSMKINGRVAASTFSSDSKKVYASSGDGEVYVWDVNSRKCLNRFVDEGSLYGLSIATSRNGQYVACGSNCGVVNIYNQDSCLQETNPKPIKAIMNLVTGVTSLTFNPTTEILAIASEKMKEAVRLVHLPSCTVFSNFPVIKNKNISHVHTMDFSPRSGYFALGNEKGKALMYRLHHYSDF [UTP18]”, the “solubility in G1/S (log2)” value in the data set with HeLa Kyoto [1] was -2.03. The sequence also came in with a melting temperature with HeLa Kyoto [2] (cell cycle stage: mitosis) of 52.7 °C. Further, in the data set with HeLa Kyoto [3], the “solubility change mitosis (log2)” value came out at 0.81.
Consider “MVNSSRVQPQQPGDAKRPPAPRAPDPGRLMAGCAAVGASLAAPGGLCEQRGLEIEMQRIRQAAARDPPAGAAASPSPPLSSCSRQAWSRDNPGFEAEEEEEEVEGEEGGMVVEMDVEWRPGSRRSAASSAVSSVGARSRGLGGYHGAGHPSGRRRRREDQGPPCPSPVGGGDPLHRHLPLEGQPPRVAWAERLVRGLRGLWGTRLMEESSTNREKYLKSVLRELVTYLLFLIVLCILTYGMMSSNVYYYTRMMSQLFLDTPVSKTEKTNFKTLSSMEDFWKFTEGSLLDGLYWKMQPSNQTEADNRSFIFYENLLLGVPRIRQLRVRNGSCSIPQDLRDEIKECYDVYSVSSEDRAPFGPRNGTAWIYTSEKDLNGSSHWGIIATYSGAGYYLDLSRTREETAAQVASLKKNVWLDRGTRATFIDFSVYNANINLFCVVRLLVEFPATGGVIPSWQFQPLKLIRYVTTFDFFLAACEIIFCFFIFYYVVEEILEIRIHKLHYFRSFWNCLDVVIVVLSVVAIGINIYRTSNVEVLLQFLEDQNTFPNFEHLAYWQIQFNNIAAVTVFFVWIKLFKFINFNRTMSQLSTTMSRCAKDLFGFAIMFFIIFLAYAQLAYLVFGTQVDDFSTFQECIFTQFRIILGDINFAEIEEANRVLGPIYFTTFVFFMFFILLNMFLAIINDTYSEVKSDLAQQKAEMELSDLIRKGYHKALVKLKLKKNTVDDISESLRQGGGKLNFDELRQDLKGKGHTDAEIEAIFTKYDQDGDQELTEHEHQQMRDDLEKEREDLDLDHSSLPRPMSSRSFPRSLDDSEEDDDEDSGHSSRRRGSISSGVSYEEFQVLVRRVDRMEHSIGSIVSKIDAVIVKLEIMERAKLKRREVLGRLLDGVAEDERLGRDSEIHREQMERLVREELERWESDDAASQISHGLGTPVGLNGQPRPRSSRPSSSQSTEGMEGAGGNGSSNVHV [PKD2]”, for which the “solubility in G1/S (log2)” value in the data set with HeLa Kyoto [1] was 0.00411. The melting temperature in the data set on HeLa Kyoto [2] (cell cycle stage: G1/S) was found to be 52.1 °C. The “solubility change mitosis (log2)” value in the data set with HeLa Kyoto [3] was -0.0995.
“MGEEANDDKKPTTKFELERETELRFEVEASQSVQLELLTGMAEIFGTELTRNKKFTFDAGAKVAVFTWHGCSVQLSGRTEVAYVSKDTPMLLYLNTHTALEQMRRQAEKEEERGPRVMVVGPTDVGKSTVCRLLLNYAVRLGRRPTYVELDVGQGSVSIPGTMGALYIERPADVEEGFSIQAPLVYHFGSTTPGTNIKLYNKITSRLADVFNQRCEVNRRASVSGCVINTCGWVKGSGYQALVHAASAFEVDVVVVLDQERLYNELKRDLPHFVRTVLLPKSGGVVERSKDFRRECRDERIREYFYGFRGCFYPHAFNVKFSDVKIYKVGAPTIPDSCLPLGMSQEDNQLKLVPVTPGRDMVHHLLSVSTAEGTEENLSETSVAGFIVVTSVDLEHQVFTVLSPAPRPLPKNFLLIMDIRFMDLK [CLP1]”: the “solubility in G1/S (log2)” value in the data set on HeLa Kyoto [1] was -0.181. Also, the melting temperature in the data set on HeLa Kyoto [2] (cell cycle stage: G1/S) is 46.9 °C; in the data set on HeLa Kyoto [2] (cell cycle stage: mitosis), 48.8 °C. The “solubility change mitosis (log2)” value with HeLa Kyoto [3] is -0.0019.
Taken in the same sequence, the figures for “MEEYHRHCDEVGFNAEEAHNIVKECVDGVLGGEDYNHNNINQWTASIVEQSLTHLVKLGKAYKYIVTCAVVQKSAYGFHTASSCFWDTTSDGTCTVRWENRTMNCIVNVFAIAIVL [DYNLT3]” were -0.189, 53.3 °C, 54.1 °C and -0.243.
In the same order, the values of “MASTGSQASDIDEIFGFFNDGEPPTKKPRKLLPSLKTKKPRELVLVIGTGISAAVAPQVPALKSWKGLIQALLDAAIDFDLLEDEESKKFQKCLHEDKNLVHVAHDLIQKLSPRTSNVRSTFFKDCLYEVFDDLESKMEDSGKQLLQSVLHLMENGALVLTTNFDNLLELYAADQGKQLESLDLTDEKKVLEWAQEKRKLSVLHIHGVYTNPSGIVLHPAGYQNVLRNTEVMREIQKLYENKSFLFLGCGWTVDDTTFQALFLEAVKHKSDLEHFMLVRRGDVDEFKKLRENMLDKGIKVISYGDDYADLPEYFKRLTCEISTRGTSAGMVREGQLNGSSAAHSEIRGCST [FAM118B]” are 0.418, 49.3 °C, 50.5 °C and -0.123.
On to “MRLRVRLLKRTWPLEVPETEPTLGHLRSHLRQSLLCTWGYSSNTRFTITLNYKDPLTGDEETLASYGIVSGDLICLILQDDIPAPNIPSSTDSEHSSLQNNEQPSLATSSNQTSMQDEQPSDSFQGQAAQSGVWNDDSMLGPSQNFEAESIQDNAHMAEGTGFYPSEPMLCSESVEGQVPHSLETLYQSADCSDANDALIVLIHLLMLESGYIPQGTEAKALSMPEKWKLSGVYKLQYMHPLCEGSSATLTCVPLGNLIVVNATLKINNEIRSVKRLQLLPESFICKEKLGENVANIYKDLQKLSRLFKDQLVYPLLAFTRQALNLPDVFGLVVLPLELKLRIFRLLDVRSVLSLSAVCRDLFTASNDPLLWRFLYLRDFRDNTVRVQDTDWKELYRKRHIQRKESPKGRFVMLLPSSTHTIPFYPNPLHPRPFPSSRLPPGIIGGEYDQRPTLPYVGDPISSLIPGPGETPSQFPPLRPRFDPVGPLPGPNPILPGRGGPNDRFPFRPSRGRPTDGRLSFM [FBXO7]”, for which the “solubility in G1/S (log2)” value in the data set on HeLa Kyoto [1] turned out to be 0.02. Also, the melting temperature stood at 48.1 °C with HeLa Kyoto [2] (cell cycle stage: G1/S) and 49.7 °C in the data set on HeLa Kyoto [2] (cell cycle stage: mitosis). Further, the “solubility change mitosis (log2)” value in the data set with HeLa Kyoto [3] is -0.126.
Taken in the same sequence, the figures for “MERFVVTAPPARNRSKTALYVTPLDRVTEFGGELHEDGGKLFCTSCNVVLNHVRKSAISDHLKSKTHTKRKAEFEEQNVRKKQRPLTASLQCNSTAQTEKVSVIQDFVKMCLEANIPLEKADHPAVRAFLSRHVKNGGSIPKSDQLRRAYLPDGYENENQLLNSQDC [CGGBP1]” were 0.332, 51.7 °C, 51.8 °C and 0.0407.
In the same order, the values of “MVGEMETKEKPKPTPDYLMQLMNDKKLMSSLPNFCGIFNHLERLLDEEISRVRKDMYNDTLNGSTEKRSAELPDAVGPIVQLQEKLYVPVKEYPDFNFVGRILGPRGLTAKQLEAETGCKIMVRGKGSMRDKKKEEQNRGKPNWEHLNEDLHVLITVEDAQNRAEIKLKRAVEEVKKLLVPAAEGEDSLKKMQLMELAILNGTYRDANIKSPALAFSLAATAQAAPRIITGPAPVLPPAALRTPTPAGPTIMPLIRQIQTAVMPNGTPHPTAAIVPPGPEAGLIYTPYEYPYTLAPATSILEYPIEPSGVLGAVATKVRRHDMRVHPYQRIVTADRAATGN [QKI]” are 0.613, 50.2 °C, 49.8 °C and -0.0775.
